Data: the supplement of paper PMC9876800

Test system: peptide library, one residue held at a place counted from the S/T acceptor
Assay: relative phosphorylation of the sub-library (ratio to the mean residue at this position); higher = residue favoured
Details: human
In short: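 Purified recombinant kinases were reacted in 384-well plates with biotinylated degenerate peptide sub-libraries, each having one residue fixed at one position around a central Ser/Thr. The reaction mix contained 50 μM peptide plus 50 μM ATP spiked with γ-32P-ATP and ran for 90 min under kinase-specific conditions. Relative sub-library phosphorylation, taken from densitometry of phosphorimaged streptavidin membrane spots, is a ratio to the mean residue at that position.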

Sequence of SMG1, construct: Full length (Q96Q15 whole entry, looked up): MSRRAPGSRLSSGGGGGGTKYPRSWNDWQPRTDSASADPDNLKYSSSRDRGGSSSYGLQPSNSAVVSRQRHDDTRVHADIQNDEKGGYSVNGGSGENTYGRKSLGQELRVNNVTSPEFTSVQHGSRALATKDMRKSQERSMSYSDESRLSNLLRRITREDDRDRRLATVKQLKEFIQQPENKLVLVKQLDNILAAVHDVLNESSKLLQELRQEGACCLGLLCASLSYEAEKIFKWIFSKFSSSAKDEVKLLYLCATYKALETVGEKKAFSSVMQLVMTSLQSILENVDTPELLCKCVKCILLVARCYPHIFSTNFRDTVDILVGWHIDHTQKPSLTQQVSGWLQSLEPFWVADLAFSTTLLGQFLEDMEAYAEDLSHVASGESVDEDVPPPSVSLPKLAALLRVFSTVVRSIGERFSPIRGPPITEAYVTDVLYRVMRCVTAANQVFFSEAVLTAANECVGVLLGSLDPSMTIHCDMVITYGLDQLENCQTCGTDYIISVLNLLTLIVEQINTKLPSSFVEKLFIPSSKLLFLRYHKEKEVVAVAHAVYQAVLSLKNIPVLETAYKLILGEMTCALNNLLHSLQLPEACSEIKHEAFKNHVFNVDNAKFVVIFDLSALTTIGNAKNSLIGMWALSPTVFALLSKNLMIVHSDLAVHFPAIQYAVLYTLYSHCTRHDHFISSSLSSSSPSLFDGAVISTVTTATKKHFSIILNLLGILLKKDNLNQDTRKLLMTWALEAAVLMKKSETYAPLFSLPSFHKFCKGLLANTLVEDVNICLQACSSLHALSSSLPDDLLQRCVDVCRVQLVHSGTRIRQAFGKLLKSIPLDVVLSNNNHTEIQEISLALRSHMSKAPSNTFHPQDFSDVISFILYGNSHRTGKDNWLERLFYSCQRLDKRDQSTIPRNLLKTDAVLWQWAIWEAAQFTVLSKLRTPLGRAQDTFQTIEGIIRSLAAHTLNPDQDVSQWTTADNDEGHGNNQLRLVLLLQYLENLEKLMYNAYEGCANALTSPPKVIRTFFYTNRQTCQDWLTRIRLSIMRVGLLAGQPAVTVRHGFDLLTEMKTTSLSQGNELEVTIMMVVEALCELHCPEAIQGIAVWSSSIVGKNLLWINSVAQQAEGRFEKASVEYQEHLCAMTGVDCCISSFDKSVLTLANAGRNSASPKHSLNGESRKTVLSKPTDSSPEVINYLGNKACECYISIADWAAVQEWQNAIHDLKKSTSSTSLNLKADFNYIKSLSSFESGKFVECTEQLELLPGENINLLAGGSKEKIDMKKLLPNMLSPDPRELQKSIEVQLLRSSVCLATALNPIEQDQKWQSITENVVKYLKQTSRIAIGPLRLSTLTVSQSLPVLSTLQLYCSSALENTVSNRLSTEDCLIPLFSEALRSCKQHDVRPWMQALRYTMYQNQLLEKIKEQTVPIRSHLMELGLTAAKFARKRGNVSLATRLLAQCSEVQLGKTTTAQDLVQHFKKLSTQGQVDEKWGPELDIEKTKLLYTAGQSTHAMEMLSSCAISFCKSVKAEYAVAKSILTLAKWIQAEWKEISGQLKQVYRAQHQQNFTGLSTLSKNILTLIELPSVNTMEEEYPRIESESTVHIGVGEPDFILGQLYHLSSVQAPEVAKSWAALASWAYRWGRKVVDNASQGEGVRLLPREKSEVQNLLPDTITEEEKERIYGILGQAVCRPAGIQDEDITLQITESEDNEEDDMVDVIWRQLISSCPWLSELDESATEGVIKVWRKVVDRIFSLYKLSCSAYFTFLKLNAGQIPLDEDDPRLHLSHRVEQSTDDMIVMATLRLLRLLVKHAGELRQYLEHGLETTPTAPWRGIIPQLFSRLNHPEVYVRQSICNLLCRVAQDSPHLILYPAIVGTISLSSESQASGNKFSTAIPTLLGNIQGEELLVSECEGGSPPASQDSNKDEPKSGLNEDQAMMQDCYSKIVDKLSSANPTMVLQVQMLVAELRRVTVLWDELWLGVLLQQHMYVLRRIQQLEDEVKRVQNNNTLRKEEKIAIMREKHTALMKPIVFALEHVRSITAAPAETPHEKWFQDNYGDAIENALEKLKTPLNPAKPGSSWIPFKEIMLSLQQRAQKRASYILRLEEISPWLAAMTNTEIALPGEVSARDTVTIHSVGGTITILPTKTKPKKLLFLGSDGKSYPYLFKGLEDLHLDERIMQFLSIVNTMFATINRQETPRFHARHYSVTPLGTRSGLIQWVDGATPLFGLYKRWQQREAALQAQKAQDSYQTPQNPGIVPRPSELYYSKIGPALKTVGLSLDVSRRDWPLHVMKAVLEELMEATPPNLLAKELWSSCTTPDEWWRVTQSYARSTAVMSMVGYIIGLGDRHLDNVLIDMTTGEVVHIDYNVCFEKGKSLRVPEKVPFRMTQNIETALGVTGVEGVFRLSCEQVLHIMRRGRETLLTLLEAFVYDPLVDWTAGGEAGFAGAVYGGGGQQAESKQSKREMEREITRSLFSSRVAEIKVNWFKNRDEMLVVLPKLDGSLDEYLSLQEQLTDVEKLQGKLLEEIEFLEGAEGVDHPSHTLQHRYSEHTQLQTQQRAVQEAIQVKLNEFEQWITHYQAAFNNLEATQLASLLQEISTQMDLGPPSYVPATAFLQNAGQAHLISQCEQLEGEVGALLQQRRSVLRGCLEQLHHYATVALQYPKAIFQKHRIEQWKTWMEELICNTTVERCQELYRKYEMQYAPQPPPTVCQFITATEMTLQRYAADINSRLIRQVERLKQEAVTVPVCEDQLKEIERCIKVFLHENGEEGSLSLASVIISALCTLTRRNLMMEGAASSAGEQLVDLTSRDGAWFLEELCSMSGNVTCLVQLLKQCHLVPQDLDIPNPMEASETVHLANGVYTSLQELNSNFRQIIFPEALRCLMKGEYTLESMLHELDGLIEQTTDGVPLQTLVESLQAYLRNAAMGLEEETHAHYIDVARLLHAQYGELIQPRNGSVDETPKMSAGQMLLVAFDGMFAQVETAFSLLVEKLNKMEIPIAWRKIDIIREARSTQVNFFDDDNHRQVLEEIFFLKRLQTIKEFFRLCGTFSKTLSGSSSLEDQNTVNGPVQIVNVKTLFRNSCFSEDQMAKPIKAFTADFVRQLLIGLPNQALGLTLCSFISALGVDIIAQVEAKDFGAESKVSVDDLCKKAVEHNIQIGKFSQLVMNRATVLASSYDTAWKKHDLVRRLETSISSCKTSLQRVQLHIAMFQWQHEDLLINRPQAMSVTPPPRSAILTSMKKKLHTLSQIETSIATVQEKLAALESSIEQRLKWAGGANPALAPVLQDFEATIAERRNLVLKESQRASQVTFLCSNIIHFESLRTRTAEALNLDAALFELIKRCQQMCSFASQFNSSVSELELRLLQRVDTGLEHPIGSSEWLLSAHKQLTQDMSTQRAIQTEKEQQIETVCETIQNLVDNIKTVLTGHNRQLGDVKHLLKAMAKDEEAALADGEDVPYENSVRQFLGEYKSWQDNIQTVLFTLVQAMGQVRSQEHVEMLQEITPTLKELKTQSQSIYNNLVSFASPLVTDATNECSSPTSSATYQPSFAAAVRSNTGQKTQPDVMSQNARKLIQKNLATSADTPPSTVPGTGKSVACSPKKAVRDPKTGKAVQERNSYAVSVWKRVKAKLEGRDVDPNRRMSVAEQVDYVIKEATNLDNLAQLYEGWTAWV
Sequence of ROCK1, construct: aa1-535 (Q13464 1-535, looked up): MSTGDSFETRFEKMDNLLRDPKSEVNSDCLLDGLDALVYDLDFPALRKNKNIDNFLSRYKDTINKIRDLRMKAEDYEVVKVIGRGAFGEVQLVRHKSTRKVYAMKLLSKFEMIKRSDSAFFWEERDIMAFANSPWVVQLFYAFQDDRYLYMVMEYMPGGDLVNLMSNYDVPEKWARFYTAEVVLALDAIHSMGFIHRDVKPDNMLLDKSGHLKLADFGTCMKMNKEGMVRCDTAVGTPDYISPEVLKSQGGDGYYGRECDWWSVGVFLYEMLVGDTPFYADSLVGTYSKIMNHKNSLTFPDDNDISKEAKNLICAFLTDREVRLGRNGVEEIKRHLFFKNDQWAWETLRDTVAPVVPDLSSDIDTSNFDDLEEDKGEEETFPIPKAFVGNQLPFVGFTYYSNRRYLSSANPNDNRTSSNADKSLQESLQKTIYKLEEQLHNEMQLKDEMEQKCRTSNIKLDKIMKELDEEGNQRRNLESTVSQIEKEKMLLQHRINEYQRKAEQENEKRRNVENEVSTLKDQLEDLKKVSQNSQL
Sequence of PNCK, construct: Full length (Q6P2M8 whole entry, looked up): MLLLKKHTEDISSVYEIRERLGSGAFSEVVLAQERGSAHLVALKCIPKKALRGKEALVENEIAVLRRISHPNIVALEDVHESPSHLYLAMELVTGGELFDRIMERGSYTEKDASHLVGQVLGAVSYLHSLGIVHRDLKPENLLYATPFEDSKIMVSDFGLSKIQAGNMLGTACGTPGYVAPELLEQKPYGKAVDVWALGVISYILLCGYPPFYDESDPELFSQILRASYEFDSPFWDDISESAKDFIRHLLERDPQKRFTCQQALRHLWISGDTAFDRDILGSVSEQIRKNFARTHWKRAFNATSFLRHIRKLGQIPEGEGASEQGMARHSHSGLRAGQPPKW
Sequence of CDK16, construct: aa107-end (Q00536 107-496, looked up): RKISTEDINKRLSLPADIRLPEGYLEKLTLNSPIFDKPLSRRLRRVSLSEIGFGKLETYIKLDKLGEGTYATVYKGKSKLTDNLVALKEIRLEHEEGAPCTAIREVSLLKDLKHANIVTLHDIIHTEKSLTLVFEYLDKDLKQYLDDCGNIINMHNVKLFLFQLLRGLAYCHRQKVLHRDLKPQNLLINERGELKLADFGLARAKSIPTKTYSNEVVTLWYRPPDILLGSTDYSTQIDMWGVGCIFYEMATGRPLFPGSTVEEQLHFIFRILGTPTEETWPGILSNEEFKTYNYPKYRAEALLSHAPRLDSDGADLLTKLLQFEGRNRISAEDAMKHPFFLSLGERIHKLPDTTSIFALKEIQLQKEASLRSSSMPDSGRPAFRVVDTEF

CDK16, construct: aa107-end (from UniProt Q00536)
relative phosphorylation
Details | at +1 | at +2 | at +3 | at +4 | at -1 | at -2 | at -3 | at -4 | at -5
A fixed | 0.223 | 0.675 | 0.758 | 0.72 | 1.18 | 1.28 | 1.24 | 0.912 | 1.03
D fixed | 0.152 | 0.587 | 0.335 | 0.457 | 0.539 | 0.439 | 0.692 | 0.863 | 0.745
E fixed | 0.15 | 0.385 | 0.316 | 0.305 | 0.491 | 0.464 | 0.839 | 0.817 | 0.699
F fixed | 0.155 | 0.368 | 1.03 | 0.593 | 0.499 | 0.512 | 0.478 | 0.455 | 0.542
G fixed | 0.947 | 0.572 | 0.702 | 1.38 | 2.12 | 0.887 | 2.02 | 0.951 | 0.854
H fixed | 0.218 | 1.25 | 0.82 | 1.16 | 0.92 | 0.797 | 1.27 | 1.08 | 1.68
I fixed | 0.147 | 0.455 | 0.842 | 0.588 | 0.26 | 0.834 | 0.433 | 0.852 | 0.625
K fixed | 0.253 | 3.26 | 0.872 | 2.54 | 1.37 | 0.617 | 0.915 | 2.31 | 2.51
L fixed | 0.177 | 1.05 | 2.59 | 0.679 | 0.582 | 1.18 | 0.93 | 1.15 | 1.16
M fixed | 0.168 | 0.663 | 1.97 | 0.757 | 0.722 | 1.12 | 0.666 | 0.755 | 0.722
N fixed | 0.225 | 1.17 | 0.964 | 1.09 | 1.16 | 1.08 | 1.19 | 1.78 | 1.42
P fixed | 13.1 | 0.696 | 1.45 | 0.842 | 1.77 | 3.72 | 1.93 | 1.11 | 0.908
Q fixed | 0.246 | 1.26 | 0.973 | 1.06 | 1.28 | 0.988 | 1.06 | 1.01 | 0.95
R fixed | 0.23 | 2.63 | 0.996 | 2.89 | 1.67 | 0.715 | 0.973 | 1.02 | 1.08
V fixed | 0.177 | 0.676 | 0.937 | 0.66 | 0.399 | 0.941 | 0.643 | 0.598 | 0.657
W fixed | 0.221 | 0.702 | 0.877 | 0.687 | 0.991 | 0.83 | 0.85 | 0.675 | 0.902
Y fixed | 0.17 | 0.608 | 0.564 | 0.587 | 1.04 | 0.588 | 0.871 | 0.653 | 0.509
pThr fixed | 0.435 | 0.648 | 0.998 | 0.332 | 0.397 | 0.764 | 0.87 | 0.767 | 0.657
pTyr fixed | 0.801 | 0.513 | 1.11 | 0.42 | 0.49 | 0.698 | 0.925 | 0.584 | 0.723

PNCK, construct: Full length (from UniProt Q6P2M8)
relative phosphorylation
Details | at +1 | at +2 | at +3 | at +4 | at -1 | at -2 | at -3 | at -4 | at -5
A fixed | 0.986 | 1.09 | 1 | 0.953 | 0.983 | 1.03 | 0.881 | 0.95 | 0.856
D fixed | 0.844 | 1.03 | 1.2 | 1.01 | 1.07 | 0.666 | 0.626 | 0.713 | 0.718
E fixed | 0.919 | 1.03 | 1.07 | 0.985 | 0.92 | 0.678 | 0.644 | 0.803 | 0.726
F fixed | 1.37 | 0.986 | 1 | 1.07 | 0.904 | 0.687 | 0.659 | 0.921 | 1.12
G fixed | 0.879 | 0.871 | 1.01 | 1.01 | 1.01 | 0.814 | 0.678 | 0.863 | 0.833
H fixed | 0.96 | 1.28 | 1.02 | 0.93 | 1.06 | 0.826 | 0.799 | 0.921 | 0.839
I fixed | 0.869 | 1.01 | 0.851 | 1.13 | 0.785 | 0.795 | 0.741 | 1.06 | 1.12
K fixed | 1.13 | 0.889 | 0.962 | 0.927 | 1.32 | 1.88 | 1.84 | 1.7 | 1.13
L fixed | 0.866 | 0.98 | 0.913 | 1.2 | 0.826 | 0.764 | 0.694 | 1.1 | 1.56
M fixed | 0.938 | 0.893 | 0.876 | 0.982 | 0.869 | 0.855 | 0.668 | 0.986 | 1.07
N fixed | 1.06 | 0.966 | 1.26 | 0.96 | 1.41 | 0.934 | 0.732 | 0.892 | 0.822
P fixed | 0.777 | 0.914 | 0.92 | 1.07 | 1.07 | 0.641 | 0.649 | 0.787 | 0.994
Q fixed | 1.19 | 0.947 | 0.976 | 1 | 0.983 | 1.46 | 0.826 | 1.01 | 0.958
R fixed | 1.39 | 1.02 | 0.958 | 0.875 | 1.32 | 2.64 | 4.54 | 1.49 | 1.44
V fixed | 0.873 | 1.02 | 0.885 | 0.991 | 0.795 | 0.8 | 0.679 | 1.05 | 0.956
W fixed | 0.909 | 0.916 | 1.02 | 0.989 | 0.81 | 0.829 | 0.7 | 0.835 | 0.873
Y fixed | 1.02 | 1.14 | 1.08 | 0.91 | 0.86 | 0.706 | 0.644 | 0.91 | 0.973
pThr fixed | 1.16 | 1.29 | 1.1 | 1.13 | 0.832 | 0.701 | 0.723 | 0.902 | 0.774
pTyr fixed | 1.12 | 2.97 | 1.42 | 1.04 | 1.02 | 0.701 | 0.684 | 0.799 | 0.897

ROCK1, construct: aa1-535 (from UniProt Q13464)
relative phosphorylation
Details | at +1 | at +2 | at +3 | at +4 | at -1 | at -2 | at -3 | at -4 | at -5
A fixed | 0.632 | 0.883 | 1.01 | 0.721 | 0.745 | 0.528 | 0.549 | 0.906 | 0.953
D fixed | 0.366 | 0.412 | 0.54 | 0.674 | 0.384 | 0.203 | 0.219 | 0.44 | 0.454
E fixed | 0.358 | 0.39 | 0.488 | 0.656 | 0.303 | 0.188 | 0.231 | 0.525 | 0.462
F fixed | 0.758 | 0.678 | 1.11 | 1.13 | 0.579 | 0.42 | 0.343 | 0.653 | 0.703
G fixed | 0.706 | 0.773 | 1.42 | 1.06 | 1.03 | 0.534 | 0.577 | 1.1 | 1.06
H fixed | 0.963 | 1.13 | 1.23 | 1.15 | 1.23 | 1.12 | 1.35 | 1.15 | 1.19
I fixed | 1.43 | 1.13 | 0.81 | 0.866 | 0.52 | 0.268 | 0.28 | 0.532 | 0.603
K fixed | 1.1 | 1.6 | 1.08 | 1.35 | 2.43 | 2.69 | 2.63 | 2.22 | 2.44
L fixed | 1.57 | 1.2 | 1.01 | 1.06 | 1.02 | 0.359 | 0.316 | 0.571 | 0.495
M fixed | 1.64 | 0.968 | 0.913 | 0.999 | 1.06 | 0.448 | 0.352 | 0.732 | 0.586
N fixed | 1.38 | 0.854 | 0.988 | 1.15 | 1.14 | 0.906 | 0.575 | 0.89 | 0.878
P fixed | 0.224 | 0.727 | 1.15 | 0.994 | 0.816 | 0.43 | 0.412 | 0.891 | 0.931
Q fixed | 1.33 | 0.866 | 0.897 | 1.12 | 1.11 | 0.842 | 0.703 | 0.88 | 0.83
R fixed | 2.22 | 2.27 | 1.34 | 1.37 | 2.27 | 6.35 | 7.13 | 3.19 | 3.2
V fixed | 0.969 | 1.26 | 0.818 | 0.709 | 0.648 | 0.317 | 0.293 | 0.657 | 0.672
W fixed | 0.704 | 0.808 | 1.16 | 1.07 | 0.673 | 0.774 | 0.562 | 0.885 | 0.759
Y fixed | 0.648 | 1.05 | 1.03 | 0.927 | 1.05 | 0.623 | 0.485 | 0.777 | 0.778
pThr fixed | 0.432 | 0.607 | 0.507 | 0.658 | 0.315 | 0.378 | 0.392 | 0.712 | 0.745
pTyr fixed | 0.477 | 0.576 | 0.731 | 0.674 | 0.525 | 0.329 | 0.407 | 0.625 | 0.817

SMG1, construct: Full length (from UniProt Q96Q15)
relative phosphorylation
Details | at +1 | at +2 | at +3 | at +4 | at -1 | at -2 | at -3 | at -4 | at -5
A fixed | 0.603 | 0.979 | 1.02 | 0.957 | 0.855 | 1.26 | 1.21 | 1.23 | 1.18
D fixed | 0.453 | 1.12 | 1.33 | 0.91 | 0.348 | 0.521 | 0.669 | 0.674 | 0.649
E fixed | 0.336 | 0.964 | 1.15 | 0.799 | 0.298 | 0.645 | 0.836 | 0.829 | 0.693
F fixed | 0.533 | 0.966 | 1.12 | 1.28 | 1.35 | 1.25 | 1.44 | 1.3 | 1.39
G fixed | 0.603 | 0.924 | 0.974 | 0.933 | 0.646 | 1.29 | 1.03 | 1.26 | 1.28
H fixed | 0.522 | 0.991 | 0.858 | 1.06 | 0.939 | 1.04 | 0.972 | 1.02 | 1.07
I fixed | 0.539 | 0.841 | 0.899 | 0.883 | 0.662 | 1.08 | 0.874 | 0.926 | 0.924
K fixed | 0.581 | 0.711 | 0.62 | 0.779 | 0.725 | 0.698 | 0.604 | 0.614 | 0.67
L fixed | 0.739 | 0.889 | 0.853 | 0.943 | 4.37 | 1.2 | 0.965 | 1.01 | 0.958
M fixed | 0.55 | 1.03 | 1.07 | 1 | 2.27 | 1.26 | 1.33 | 1.08 | 1.03
N fixed | 0.841 | 0.832 | 0.854 | 0.806 | 0.722 | 0.82 | 0.766 | 0.73 | 0.701
P fixed | 0.567 | 1.39 | 0.996 | 1.12 | 0.558 | 0.807 | 0.817 | 0.855 | 1
Q fixed | 7.53 | 1.13 | 0.832 | 0.867 | 0.822 | 0.877 | 0.83 | 0.766 | 0.729
R fixed | 0.875 | 0.818 | 0.931 | 0.85 | 0.615 | 0.751 | 0.687 | 0.677 | 0.781
V fixed | 0.567 | 0.946 | 0.913 | 0.881 | 0.474 | 0.996 | 0.912 | 0.93 | 0.964
W fixed | 0.545 | 1.26 | 1.31 | 1.53 | 0.53 | 1.08 | 1.36 | 1.55 | 1.6
Y fixed | 0.613 | 1.2 | 1.28 | 1.39 | 0.823 | 1.42 | 1.7 | 1.55 | 1.38
pThr fixed | 0.386 | 1.04 | 1.82 | 1.03 | 0.365 | 0.661 | 0.999 | 1.11 | 1.1
pTyr fixed | 0.416 | 0.704 | 1.06 | 1.41 | 0.539 | 1.27 | 1.71 | 1.65 | 1.47
